From publication PMC314469, “Protein Interaction Networks by Proteome Peptide Scanning” (PLoS Biology, 2004)

T1: Abp1 SH3 (ABP1_YEAST), P15891
T1 chain: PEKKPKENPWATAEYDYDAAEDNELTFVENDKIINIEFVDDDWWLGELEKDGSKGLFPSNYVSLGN


Molecular target: T1, Abp1 SH3 (ABP1_YEAST), P15891
Assay: SPOT array

| Binder | normalised SPOT signal, Boehringer light units (BLU); mean over the file's lines of this peptide |
| --- | --- |
| LHYHVIGSNGPAKP [YGR198W 51-64] | 60.8 |
| KVKQYIEPESVKP [YBR236C 423-435] | 100 |
| KVFLDTHKESPLRP [YKR003W 302-315] | 73.1 |
| LHQYLSETYGPTKP [YGL174W 3-16] | 39 |
| KVVASKIPVISKP [YHR077C 993-1005] | 126 |
| LEFVRGKQNIPRKP [YGR230W 120-133] | 800 |
| LIKSILNRSVPKRP [YAL017W 1330-1343] | 324 |
| KTREPLQPRPPVKP [YGR084C 83-96] | 706 |
| LESNSMRGYQPFRP [YBR136W 2029-2042] | 250 |
| LESSPKKHVSPSRP [YAL028W 269-282] | 184 |
| LDLSNIKPIQLKP [YGR193C 231-243] | 176 |
| KVMENWTPGAPKP [YGL202W 197-209] | 106 |
| LDATEPPIDLPQKP [YJL219W 41-54] | 125 |
| LELAVPGTYFPGKP [YJR066W 2073-2086] | 40 |
| LGKVVAVKIIPKKP [YKL048C 110-123] | 185 |
| LFDGPENVINPLKP [YDR392W 289-302] | 35 |
| LEVVDGSPYGYRP [YLL015W 4-16] | 0 |
| LDVLKIKPLPYKP [YER093C 582-594] | 2070 |

| Binder | normalised SPOT signal, Boehringer light units (BLU); mean over the file's lines of this peptide |
| --- | --- |
| LAFFHNIPKKVRP [YDL058W 339-351] | 221 |
| LAKYAGLPTAEKP [YDL033C 211-223] | 55.9 |
| KTDAKLKPFIYRP [YGR084C 56-68] | 2160 |
| LGIDKRSSTKPTKP [YLR054C 309-322] | 188 |
| LDDSPVTPGETRP [YGR086C 227-239] | 64.5 |
| LELTNPSPIQIKP [YDR285W 822-834] | 82.9 |
| LIDPRVDPILMRP [YER101C 153-165] | 75.9 |
| LEVVKSLYDRPLKP [YGR232W 85-98] | 63.6 |
| LEGNELYPLSYKP [YGL131C 1252-1264] | 65.6 |
| LEVPERIPEVLRP [YFL004W 802-814] | 14.9 |
| LFGSGIGEEAPTKP [YJL095W 372-385] | 118 |
| KYREIIRNDLPPRP [YGR109W-B 563-576] | 86 |
| LDNILPLEWYPLRP [YHR204W 395-408] | 84.7 |
| LDATEAPIDLPQKP [YIL171W 41-54] | 77.8 |
| KYIKEKGPSSIKP [YGL251C 1061-1073] | 104 |
| LAPMMQKGNLPKRP [YBR056W 390-403] | 3410 |
| KTGNPFVRINPNRP [YBR136W 497-510] | 371 |
| LDHAIKLSRNPDKP [YLL051C 566-579] | 97.5 |

The next lines start with the values.

| normalised SPOT signal, Boehringer light units (BLU); mean over the file's lines of this peptide | Binder |
| --- | --- |
| 84.3 | LEARTNFPLILRP [YLR428C 53-65] |
| 110 | LSGIQDNLLSPLKP [YOR365C 124-137] |
| 118 | LELVQPLPASKKP [YOL087C 650-662] |
| 86.1 | LEEKKEQPKVEKP [YLR429W 427-439] |
| 119 | KTKAKKEKPKPPKP [YMR044W 279-292] |
| 118 | LESLSMLPEIVRP [YLR085C 335-347] |
| 138 | LEKLGDISDIPVKP [YPL167C 291-304] |
| 76.1 | LEGSVSLPRFSKP [YOL021C 286-298] |
| 577 | LDRLKKNPYAHKP [YPL029W 708-720] |
| 69 | LHGNTNAPTPLRP [YPR099C 85-97] |
| 9110 | KTATTPPPVLRRP [YMR184W 66-78] |
| 69.6 | KVHRHEPPVTSKP [YOL066C 148-160] |
| 110 | LHLIEILPKLIKP [YMR110C 95-107] |
| 160 | LDEQPGFQILPFKP [YOR023C 257-270] |
| 1240 | LEKRGRVPLQARP [YNL284C 230-242] |
| 88.4 | LHLEKMKPDLKKP [YOL078W 925-937] |
| 176 | LIARNVRTFKPFKP [YNL213C 178-191] |
| 72.3 | LDANEPPIDLPQKP [YOL156W 41-54] |
| 466 | LSGSIIGPKRVKP [YLR427W 248-260] |
| 75.2 | LSGSDYLQSGPRKP [YMR168C 296-309] |
| 57.3 | LDDSPVTPGEARP [YPL004C 227-239] |
| 404 | LILGKMVKWGPLRP [YOL072W 276-289] |
